The values that follow come from PMC3257281.

Assay [1] has as its target rabbit intestinal mucin (rabbit). Nature of the assay: binding to mucin-coupled Sepharose resin, Scatchard plot.
The target is the same in assay [2].
The target is the same in assay [3]. Nature of the assay: ELISA.
Assay [4] shares this target. Nature of the assay: binding to mucin-coupled Sepharose resin, Scatchard plot; rabbit mucin coupled to NHS-activated sepharose; different amounts of GbpA protein added to 400 µl resin, 2 h, room temperature; unbound protein measured after centrifugation; Kd from bound vs. bound/free.

On to “GbpAfl, mature full-length GlcNAc binding protein A (residues 24-485) (from UniProt Q9KLD5 24-485) (natural protein)”, for which the Kd in assay [1] is 9.4 µM; in assay [3] it was 7.8 µM. For the same substance, the inhibition of binding of biotinylated wild type V. cholerae N16961 to mucin-coated wells pre-treated with increasing concentrations of the protein; value at saturation in assay [2] turned out to be 83%.

Consider “GbpA(Y61A), full length GbpA with tyrosine 61 changed to alanine (from UniProt Q9KLD5 24-485) (natural protein)”, for which the figures for the Kd in assay [4] and in assay [3] were 14.1 µM and 14.7 µM, respectively. In assay [2], the inhibition of binding of biotinylated wild type V. cholerae N16961 to mucin-coated wells pre-treated with increasing concentrations of the protein; value at saturation turned out to be 83%.

In the case of “GbpA_(D1–3), GbpA domains 1 to 3 (residues 24-414) (from UniProt Q9KLD5 24-414) (domain or fragment)”, the Kd in assay [4] was 12.5 µM; in assay [3], 13.2 µM.

As for “GbpAD1, GbpA domain 1 (residues 24-203) (from UniProt Q9KLD5 24-203) (domain or fragment)”, the Kd in assay [3] stood at 8.7 µM.

Consider “GbpAD3, GbpA domain 3 (domain or fragment)”, for which the Kd in assay [3] is 76.4 µM.
